Here are results for two substances from article PMC10897201.

The target of one test is CD2 (human) (UniProt P06729).
Test [1] concerns the target surface Spycatcher fused to the hinge of hCD52 (human). Briefly: flow cytometry on cells; titration of purified Spytag-mClover3 on CHO-K1 cells transduced with surface Spycatcher; covalent coupling read by mClover3 fluorescence. On the technique in general: A flow cytometer gives signals particle by particle.

Sequence of UniProt P06729 (P06729 25-351): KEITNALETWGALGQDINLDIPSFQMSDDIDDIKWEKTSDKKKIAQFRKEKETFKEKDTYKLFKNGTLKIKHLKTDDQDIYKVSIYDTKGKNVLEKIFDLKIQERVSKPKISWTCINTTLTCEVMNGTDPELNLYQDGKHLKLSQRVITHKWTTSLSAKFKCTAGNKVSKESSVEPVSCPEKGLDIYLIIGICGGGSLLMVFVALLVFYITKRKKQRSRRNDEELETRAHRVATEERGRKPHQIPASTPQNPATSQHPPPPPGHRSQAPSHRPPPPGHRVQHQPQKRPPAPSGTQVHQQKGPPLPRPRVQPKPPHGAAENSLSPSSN

In the test with CD2 (human), “full extracellular domain of CD58 fused to a C-terminal Spytag and Histag (from UniProt P19256 29-215) (ligand)” gave a fold improvement of antigen sensitivity, 4-1BB, 1G4 TCR T cells, with the CD2 ligand against pMHC alone of 230 fold; a fold improvement of antigen sensitivity, 4-1BB, D52N CAR T cells, with the CD2 ligand against pMHC alone of 11 fold; a fold improvement of antigen sensitivity, IL-2, 1G4 TCR T cells, with the CD2 ligand against pMHC alone of 46 fold; a fold improvement of antigen sensitivity, IL-2, D52N CAR T cells, with the CD2 ligand against pMHC alone of 3.9 fold.
In the case of purified mClover3 fused to Spytag, the concentration at saturation in test [1] stood at 1 µM.
